Data published in the supplement of paper PMC12764529.
± gives the half width of the 95% confidence interval.

How the values were obtained:
[1] = folding stability dG unfold (combined trypsin and chymotrypsin); higher = more stable
Summary of the method: (§1)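 How resistant each design was to proteolysis was captured as K50, inferred by Bayesian fitting of sequencing counts. Unfolding free energy was then derived relative to a sequence-predicted unfolded-state K50 and a shared folded-state K50, per protease or combined. Digestion used trypsin and chymotrypsin at 11 threefold-diluted concentrations plus a no-protease condition, on mini-proteins under 80 residues without cysteine in a PA-tagged cDNA display construct. Designs were kept only when AlphaFold2 dimer inter-PAE was above 15.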

[2] = folding stability dG unfold from trypsin proteolysis; higher = more stable
Summary of the method: as §1

[3] = folding stability dG unfold from chymotrypsin proteolysis; higher = more stable
Summary of the method: as §1

Row | Sequence | folding stability dG unfold [1] | folding stability dG unfold [2] | folding stability dG unfold [3]
1 | SAGGSAGGRIPLEDIEIVEVSEETLPNTEKVYHVLVKLPEGYIEATFLPNTGLEEAVERLLALESAGGSAGG [r6_232_TrMRF] | 0.788 ± 0.067 kcal/mol | 0.963 ± 0.053 kcal/mol | 0.493 ± 0.097 kcal/mol
2 | SAGGSAGGRLEPITEEEALELARLLAEYIRRLFPGDPRPHLVVVPILVPTPEDGYRLFLAVIAESAGGSAGG [r6_844_TrMRF] | 3.73 ± 0.067 kcal/mol | 2.74 ± 0.079 kcal/mol | 4.1 ± 0.039 kcal/mol
3 | SAGGSAGGRLLLVKITLPDGEEITIVLEFESEEEARAAAEALLPPGAKVEVRELSEEELEALLKSAGGSAGG [r6_267_TrROS_Hall] | 3.31 ± 0.052 kcal/mol | 3.09 ± 0.049 kcal/mol | 3.37 ± 0.044 kcal/mol
4 | SAGGSAGGRVRIHYNPEDGYIMITFPRNNPEEIAKEILEAFNIKDVNIQVDPEEGWVSIMIKIDSAGGSAGG [r6_662_TrROS] | 2.17 ± 0.41 kcal/mol | 2.95 ± 0.25 kcal/mol | 1.26 ± 0.1 kcal/mol
5 | SAGGSAGGSAAEASVVTFPGDLTAEVTKLPDGSYAVTVTFPENPGATATLTRTPDSVTVTPSAGGSAGGSAG [r3_170_JUSTAS] | -0.342 ± 0.17 kcal/mol | 0.0476 ± 0.058 kcal/mol | -1.1 ± 0.56 kcal/mol
6 | SAGGSAGGSAAKIELEDGTLRITLTRTVRDPATGETHTETLTLEIKLPPAPPPVVVVSPEDLSAGGSAGGSA [r18_501_TrROS_Hall] | 2.88 ± 0.092 kcal/mol | 2.32 ± 0.072 kcal/mol | 3.24 ± 0.037 kcal/mol
7 | SAGGSAGGSAAPDEKLKITVELVDPNNGKRIEEKEYPNMTIEEVKKEAEEKGLKIVKIEVSSAGGSAGGSAG [r3_423_JUSTAS] | -0.173 ± 0.29 kcal/mol | -0.382 ± 0.083 kcal/mol | -0.116 ± 0.061 kcal/mol
8 | SAGGSAGGSAAPLYELEILSVDLDPDNPTVYVLARIPGTSNYVLITFPPNGDVYAYASPLPSAGGSAGGSAG [r3_294_TrMRF] | 2.25 ± 0.17 kcal/mol | 1.95 ± 0.06 kcal/mol | 2.37 ± 0.06 kcal/mol
9 | SAGGSAGGSAAVPVSETPLGTLPDGRRVRLRRYRDPDGNLYTFLEVEPLPRPLSPADLEKAAASAGGSAGGS [r12_775_TrMRF] | 1.68 ± 0.1 kcal/mol | 0.492 ± 0.19 kcal/mol | 2.06 ± 0.12 kcal/mol
10 | SAGGSAGGSADEIPIMIKIKYKNGGKKREHTITFRVEPNMPNLDEFAKELANNGRIEEVEISAGGSAGGSAG [r3_30_TrROS] | 0.28 ± 0.25 kcal/mol | 0.629 ± 0.14 kcal/mol | -0.282 ± 0.59 kcal/mol
11 | SAGGSAGGSADEPETTTTTTTTTTTKKPAPPAPPKTITLDVEVNGKTLRLTFTSKEALDALSAGGSAGGSAG [r3_426_TrROS_Hall] | 1.03 ± 0.15 kcal/mol | 0.931 ± 0.021 kcal/mol | 0.945 ± 0.1 kcal/mol
12 | SAGGSAGGSADGNTPVEVTITLTDPKTGAVTTVPVVLPTSVSVEEVAAELAAKFGLTTVTVTSAGGSAGGSA [r18_58_JUSTAS] | 0.864 ± 0.037 kcal/mol | 1.06 ± 0.027 kcal/mol | 0.521 ± 0.04 kcal/mol
13 | SAGGSAGGSADKIEIRVKLKIPNTDEILTFPIWVDPENPEEVAKAIAAWLEKNGYEIESFEGSAGGSAGGSA [r18_3_TrMRF] | 3.98 ± 0.16 kcal/mol | 3.53 ± 0.23 kcal/mol | 4.14 ± 0.15 kcal/mol
14 | SAGGSAGGSADKIPVKIKVKLKDGDKEYEVTVTVTLDVNDPNLDAFAKELASSGKIEEVEASAGGSAGGSAG [r3_30_TrMRF] | 0.973 ± 0.19 kcal/mol | 0.877 ± 0.072 kcal/mol | 1.03 ± 0.15 kcal/mol
15 | SAGGSAGGSADNPDDKKKQKPKPEIKVKVEWVVIPNGFLIFEITIAGGITLTIIIPFPPNMFSAGGSAGGSA [r18_192_TrROS] | 2.84 ± 0.16 kcal/mol | 2 ± 0.058 kcal/mol | 3.09 ± 0.035 kcal/mol
16 | SAGGSAGGSADPNAFPITIFTFKMEIEDVEKTPNGQPELRYKMEVVEIRPIWLPPDDLEDLSAGGSAGGSAG [r3_121_TrROS] | 3.79 ± 0.15 kcal/mol | 3 ± 0.16 kcal/mol | 4.39 ± 0.097 kcal/mol
17 | SAGGSAGGSAEEEEMPVEELVRRKAREVEEAFPGLRGERRITVTVTLPEGETWTAELVLPLSAGGSAGGSAG [r3_64_TrMRF] | 0.507 ± 0.13 kcal/mol | 0.19 ± 0.19 kcal/mol | 0.502 ± 0.18 kcal/mol
18 | SAGGSAGGSAEELVKYLAKEHGHPPGKEVTIPFDNWMIKIRYNNDGVPVGVEIKPMPPDDMSAGGSAGGSAG [r3_468_TrROS] | 0.593 ± 0.098 kcal/mol | 0.717 ± 0.025 kcal/mol | 0.288 ± 0.12 kcal/mol
19 | SAGGSAGGSAEKTLTVVIKVKPNKTPEEIAKEIKKKLNLPNVEIVSIEYDKETNYITIKVKVSAGGSAGGSA [r18_481_TrROS_Hall] | 3.47 ± 0.12 kcal/mol | 3.6 ± 0.086 kcal/mol | 3.39 ± 0.056 kcal/mol
20 | SAGGSAGGSAEPPEPEVVAVTVEITEEDGELTITVTNEDTGEKYTFTLKNVEVKPGDTLLIRSAGGSAGGSA [r18_89_TrROS_Hall] | 1.21 ± 0.56 kcal/mol | 0.402 ± 0.26 kcal/mol | 1.77 ± 0.34 kcal/mol
21 | SAGGSAGGSAEYIVVNSDEQLKALKELGGVKEVERKENFVVVEFPDIPPELREKLLEVIKESAGGSAGGSAG [r3_398_TrMRF] | -0.366 ± 0.5 kcal/mol | -0.0633 ± 0.15 kcal/mol | -0.805 ± 0.94 kcal/mol

Row | Sequence | folding stability dG unfold [1] | folding stability dG unfold [2] | folding stability dG unfold [3]
22 | SAGGSAGGSAFIRAEYKLPENKVLEIEIPVPESVLKKMSIEEVKELFKKLGLPDDVKIEFYDESAGGSAGGS [r12_742_TrMRF] | 1.66 ± 0.098 kcal/mol | 1.43 ± 0.041 kcal/mol | 1.78 ± 0.15 kcal/mol
23 | SAGGSAGGSAGAANDPKKIPIHIFPPDGKPIFKVKIEVYDNGIKIKIEWHPSPDGLYPMISAGGSAGGSAGG [r11_874_TrROS] | 1.99 ± 0.14 kcal/mol | 1.9 ± 0.089 kcal/mol | 1.98 ± 0.082 kcal/mol
24 | SAGGSAGGSAGAAPDGETVRITAVFVNPETQEVFVVEATINPDGELTMEVKEVFKLPEGLSAGGSAGGSAGG [r11_226_TrROS_Hall] | 2.36 ± 0.068 kcal/mol | 1.42 ± 0.033 kcal/mol | 2.782 ± 0.017 kcal/mol
25 | SAGGSAGGSAGAAVSPEELKEKAKKEGYDGEVVVTRLPDGTLRVTVKDKGKKSEITVPLESAGGSAGGSAGG [r11_410_JUSTAS] | 0.672 ± 0.11 kcal/mol | 0.263 ± 0.064 kcal/mol | 0.942 ± 0.041 kcal/mol
26 | SAGGSAGGSAGAEELAKKLKELGFEVKVEKNEDGSLTLTVKFKPKPKPKKVVTKDGKEVKSAGGSAGGSAGG [r17_503_TrROS_Hall] | 1.61 ± 0.26 kcal/mol | 0.579 ± 0.076 kcal/mol | 1.9 ± 0.11 kcal/mol
27 | SAGGSAGGSAGAFVGYRDEGGRYWLRTPEGELELDSEEDALEWADFLRANGIPLLSEPRPSAGGSAGGSAGG [r17_35_TrMRF] | 1.43 ± 0.073 kcal/mol | 1.08 ± 0.032 kcal/mol | 1.59 ± 0.11 kcal/mol
28 | SAGGSAGGSAGAGKVVFEVDIKTFLGKRKDGSDAPKTIIEIKVFDIAPLDPNDPVLKALISAGGSAGGSAGG [r11_236_TrMRF] | 3.26 ± 0.22 kcal/mol | 2.28 ± 0.11 kcal/mol | 3.54 ± 0.15 kcal/mol
29 | SAGGSAGGSAGALPFKVKVVEVEVDGDEVTVKVVAELPTGTATVELKLGGKLETLTISPVSAGGSAGGSAGG [r17_45_TrMRF] | 2.16 ± 0.24 kcal/mol | 1.49 ± 0.19 kcal/mol | 2.47 ± 0.13 kcal/mol
30 | SAGGSAGGSAGAPNIVVVTLTRDALFYNPVEGKWEVKPVTLTRAFTSKEEADKWLEEIGLSAGGSAGGSAGG [r11_984_TrMRF] | 3.5 ± 0.095 kcal/mol | 2.95 ± 0.091 kcal/mol | 3.84 ± 0.042 kcal/mol
31 | SAGGSAGGSAGAPPEGAKPVEEETVPIEIQMRNDDDGKPIMPIKFEVRVYKFPDGIFISISAGGSAGGSAGG [r11_415_TrROS] | 2.45 ± 0.21 kcal/mol | 1.34 ± 0.13 kcal/mol | 2.91 ± 0.042 kcal/mol
32 | SAGGSAGGSAGAYRVEVNVELTPEAREAFLKNPELPADAEIPVVVSGRVEPVPLGPEGVLSAGGSAGGSAGG [r17_194_TrMRF] | -0.143 ± 0.12 kcal/mol | -0.58 ± 0.2 kcal/mol | 0.0793 ± 0.14 kcal/mol
33 | SAGGSAGGSAGDDNDGKKKFPMTIKIPPIPIEIPPGMKITSWIPIRIPGGLEFPIIYITPSAGGSAGGSAGG [r11_388_TrROS] | 1.03 ± 0.098 kcal/mol | 0.923 ± 0.045 kcal/mol | 1.1 ± 0.12 kcal/mol
34 | SAGGSAGGSAGDIDPEDDIFYLTVRLKDGVPFVLPVRYDDIPFIPPEFVEEATFHKPKDISAGGSAGGSAGG [r11_779_TrMRF] | 0.246 ± 0.083 kcal/mol | 0.365 ± 0.096 kcal/mol | 0.0924 ± 0.18 kcal/mol
35 | SAGGSAGGSAGDKPITIFIPGTPDDIKDYIEDEGFKIKDIEIQYHKNKDGKYWVMVTIRVSAGGSAGGSAGG [r11_632_TrROS] | 3.19 ± 0.25 kcal/mol | 2.87 ± 0.18 kcal/mol | 3.33 ± 0.13 kcal/mol
36 | SAGGSAGGSAGDNIYVFEIDIKIKPRKDPDGKWQPEIEINIKIKDIKPIPPNDPELKDLLSAGGSAGGSAGG [r11_236_TrROS] | 1.94 ± 0.07 kcal/mol | 2 ± 0.05 kcal/mol | 1.99 ± 0.036 kcal/mol
37 | SAGGSAGGSAGDVEVRFEVKFTPDGTLIIKAEIRLPDIPDVTIRVEAVILPNGEILVKVSSAGGSAGGSAGG [r11_483_TrMRF] | 3.68 ± 0.16 kcal/mol | 3.68 ± 0.11 kcal/mol | 3.06 ± 0.15 kcal/mol
38 | SAGGSAGGSAGDWIMFNFTYKDPGDPGKERTITILIPIPPPPPPEPKPVKDPNGNEGPVYSAGGSAGGSAGG [r11_419_TrROS] | 1.99 ± 0.18 kcal/mol | 1.69 ± 0.1 kcal/mol | 1.86 ± 0.08 kcal/mol
39 | SAGGSAGGSAGEEVLTLTFPVPPDAPPPGLEAIRESLPGLEDVELDAEELPDGTVRVVLSSAGGSAGGSAGG [r17_205_TrMRF] | -0.452 ± 0.68 kcal/mol | -0.558 ± 0.19 kcal/mol | -0.172 ± 0.4 kcal/mol
40 | SAGGSAGGSAGEGLKVTVTVSGELDPEKGGLSLRVEIRVEPVLIPPPVLPPAADNLSNLLSAGGSAGGSAGG [r17_454_TrMRF] | 1.55 ± 0.09 kcal/mol | 1.94 ± 0.072 kcal/mol | 0.912 ± 0.079 kcal/mol
41 | SAGGSAGGSAGEKTLKIVADSEEEAEALAKELAEKYNLEVTIERNPEEEGKYVITIKIKPSAGGSAGGSAGG [r11_797_TrROS_Hall] | 3.17 ± 0.17 kcal/mol | 2.46 ± 0.14 kcal/mol | 3.5 ± 0.045 kcal/mol
42 | SAGGSAGGSAGEMYKIKIFNKETGKELTLVFESEEEAKEALKKKFPNAKIEIEKISKEELSAGGSAGGSAGG [r11_978_TrROS_Hall] | 2.8 ± 0.23 kcal/mol | 2.38 ± 0.13 kcal/mol | 3.1 ± 0.13 kcal/mol
